These results are taken from US20180271973A1.

The term Kd denotes a measure of binding affinity in units of concentration.

The experiment addresses CH505 transmitted/founder (T/F) Env gp120 (HIV-1). The experiment in a line: surface plasmon resonance. For orientation: SPR reads the build-up and loss of mass on a sensor chip optically.

In the case of “CH103 UCA (unmutated common ancestor of the CH103 CD4 binding site bnAb lineage) (antibody)”, the Kd was 200 nM.
